Assay results from patent publication US20210285971.

Columns and labels:
[1] = molecular target: synthetic Aβ42 peptide, P05067
[2] = molecular target: synthetic Aβ40 peptide, P05067
Sequence of synthetic Aβ40 peptide, P05067 (P05067 whole entry, looked up, tested part not stated): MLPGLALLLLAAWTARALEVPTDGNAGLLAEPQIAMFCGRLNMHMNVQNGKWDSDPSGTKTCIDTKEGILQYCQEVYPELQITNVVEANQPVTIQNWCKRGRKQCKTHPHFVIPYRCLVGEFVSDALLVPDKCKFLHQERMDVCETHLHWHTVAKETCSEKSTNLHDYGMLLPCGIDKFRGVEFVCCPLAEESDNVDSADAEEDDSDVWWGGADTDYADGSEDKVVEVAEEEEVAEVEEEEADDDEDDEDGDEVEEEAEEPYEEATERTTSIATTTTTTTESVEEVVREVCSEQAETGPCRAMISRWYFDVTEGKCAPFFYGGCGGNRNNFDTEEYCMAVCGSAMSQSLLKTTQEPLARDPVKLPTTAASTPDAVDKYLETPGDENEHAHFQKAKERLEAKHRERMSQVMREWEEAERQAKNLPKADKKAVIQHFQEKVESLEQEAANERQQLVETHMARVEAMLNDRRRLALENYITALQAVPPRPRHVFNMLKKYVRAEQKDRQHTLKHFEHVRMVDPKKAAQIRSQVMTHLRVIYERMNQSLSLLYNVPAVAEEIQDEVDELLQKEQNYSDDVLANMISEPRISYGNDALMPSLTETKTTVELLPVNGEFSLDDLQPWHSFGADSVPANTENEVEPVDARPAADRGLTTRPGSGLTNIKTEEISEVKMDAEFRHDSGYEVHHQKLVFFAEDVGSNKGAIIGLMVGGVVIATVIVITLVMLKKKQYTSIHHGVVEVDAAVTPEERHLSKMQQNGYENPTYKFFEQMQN

Sequence of synthetic Aβ42 peptide, P05067 (P05067 whole entry, looked up, tested part not stated): as above

B1: BACE1 from Fc purification (protein)
chain: ETDEEPEEPGRRGSFVEMVDNLRGKSGQGYYVEMTVGSPPQTLNILVDTGSSNFAVGAAPHPFLHRYYQRQLSSTYRDLRKGVYVPYTQGKWEGELGTDLVSIPHGPNVTVRANIAAITESDKFFINGSNWEGILGLAYAEIARPDDSLEPFFDSLVKQTHVPNLFSLQLCGAGFPLNQSEVLASVGGSMIIGGIDHSLYTGSLWYTPIRREWYYEVIIVRVEINGQDLKMDCKEYNYDKSIVDSGTTNLRLPKKVFEAAVKSIKAASSTEKFPDGFWLGEQLVCWQAGTTPWNIFPVISLYLMGEVTNQSFRITILPQQYLRPVEDVATSQDDCYKFAISQSSTGTVMGAVIMEGFYVVFDRARKRIGFAVSACHVHDEFRTAAVEGPFVTLDMEDCGYNIPQTDESTLMTIAY
Question: Which “cleavage in vitro analyzed by MALDI-MS” value [1] does the source give for B1 here?
Answer: Its value is “cleavage of Aβ40 and Aβ42 by BACE1 in vitro”.

Question: And the “cleavage in vitro analyzed by MALDI-MS” value [2]?
Answer: The value was “cleavage of Aβ40 and Aβ42 by BACE1 in vitro”.
